EC50 data for one molecule are collected here from patent publication EP4062934A1 (CentricsBio, Inc., dated 2022).

This assay concerns the target T1, CD300c antigen (UniProt Q08708 21-183, limits assumed).
T1 construct: also called CD300c protein
T1 sequence (looked up): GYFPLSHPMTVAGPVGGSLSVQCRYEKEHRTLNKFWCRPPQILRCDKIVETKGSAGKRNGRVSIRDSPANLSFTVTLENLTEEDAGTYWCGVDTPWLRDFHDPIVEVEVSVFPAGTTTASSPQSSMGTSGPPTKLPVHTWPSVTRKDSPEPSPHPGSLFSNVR
Briefly: binding ELISA, antigen coated, anti-Fc HRP detection. In general terms: ELISA stands for enzyme-linked immunosorbent assay.

B1: anti-CD300c monoclonal antibody CL8 (antibody, V domains shown)
VH: EVQLLESGGGLVQPGGSLRLSCAASGFTFSSYAMSWVRQAPGKGLEWVSAISGSGGSTYYADSVKGRFTISRNNSKNTLYLQMNSLRAEDTAVYYCARSGRYADLTSGGQGTLVTVSS
VL: QSVLTQPPSASGTPGQRVTISCSGSNSNIGNNYVSWYQQLPDTPPKLLIYDNNKRPSGVPDRFSGSKSGTSASLAISGLRSEDEADYYCSSYTSSSTVMFGGGTKLTVL
For B1, the EC50 (in general, the concentration giving half of the maximal effect) was 49.7 µg/mL.
